Experimental data published in PMC10618197.

Legend:
[1] = target: HbpD-SpyCatcher fusion protein displayed on the OMV surface (not stated | Streptococcus pyogenes); assay: SEC; 10 µM SpT-CF incubated with OMV isolates for 24 h at 4 °C; SEC-HPLC on Sepharose CL-4B in PBS pH 7.4; AUC of the OMV peak of the fluorescent chromatogram normalized to the AUC of the corresponding UV peak
[2] = target: AIDA-SpyCatcher fusion protein displayed on the OMV surface (Streptococcus pyogenes | not stated); assay: as above
[3] = target: HbpD-SpyCatcher fusion protein displayed on the OMV surface (not stated | Streptococcus pyogenes); assay: SDS-PAGE with in-gel fluorescence of the covalent adduct; 10 µM SpT-CF incubated with OMV isolates for 24 h at 4 °C; fluorescence of the specific band normalized to the OmpF band after PageBlue staining; 3 separate OMV isolates for each plasmid
[4] = target: AIDA-SpyCatcher fusion protein displayed on the OMV surface (Streptococcus pyogenes | not stated); assay: as above

carboxyfluorescein coupled SpyTag (peptide)
fluorescence AUC of the OMV peak normalized to the UV AUC [1]: 2.25 AU | fluorescence AUC of the OMV peak normalized to the UV AUC [2]: 6.86 AU | SpT-CF band fluorescence normalized to the OmpF band [3]: 4.15 AU | SpT-CF band fluorescence normalized to the OmpF band [4]: 6.55 AU
